± gives the standard deviation of the averaged measurements.
Experiment: total protein half-life in vivo (active degradation + dilution); higher = more stable protein
[1] = E. coli NCM3722 delta-clpP delta-lon delta-hslV, growth: N-lim chemostat, doubling time 6 h
[2] = E. coli NCM3722 delta-clpP, growth: N-lim chemostat, doubling time 6 h
[3] = E. coli NCM3722 delta-hslV, growth: N-lim chemostat, doubling time 6 h
[4] = E. coli NCM3722 delta-lon, growth: N-lim chemostat, doubling time 6 h
[5] = E. coli NCM3722 delta-smpB, growth: N-lim chemostat, doubling time 6 h
[6] = wild type E. coli NCM3722, growth: C-lim chemostat, doubling time 3 h
[7] = wild type E. coli NCM3722, growth: C-lim chemostat, doubling time 6 h
[8] = wild type E. coli NCM3722, growth: C-lim chemostat, doubling time 12 h
[9] = wild type E. coli NCM3722, growth: N-lim chemostat, doubling time 6 h
[10] = wild type E. coli NCM3722, growth: N-lim chemostat, doubling time 12 h
[11] = wild type E. coli NCM3722, growth: P-lim chemostat, doubling time 6 h
[12] = wild type E. coli NCM3722, growth: P-lim chemostat, doubling time 12 h

MTMSLEVFEKLEAKVQQAIDTITLLQMEIEELKEKNNSLSQEVQNAQHQREELERENNHLKEQQNGWQERLQALLGRMEEV [P0AF36]
total protein half-life in vivo [1]: 7.42 ± 0.15 h | total protein half-life in vivo [2]: 5.62 ± 0.36 h | total protein half-life in vivo [3]: 3.23 h | total protein half-life in vivo [4]: 4.06 ± 0.25 h | total protein half-life in vivo [5]: 3.08 ± 0.33 h | total protein half-life in vivo [6]: 2.8 ± 0.15 h | total protein half-life in vivo [7]: 5.01 ± 0.5 h | total protein half-life in vivo [8]: 8.02 ± 1.9 h | total protein half-life in vivo [9]: 2.88 ± 0.047 h | total protein half-life in vivo [10]: 5.13 ± 2.1 h | total protein half-life in vivo [11]: 4.53 h | total protein half-life in vivo [12]: 8.35 ± 0.092 h

MSLPHLSLADARNLHLAAQGLLNKPRRRASLEDIPATISRMSLLQIDTINIVARSPYLVLFSRLGNYPAQWLDESLARGELMEYWAHEACFMPRSDFRLIRHRMLAPEKMGWKYKDAWMQEHEAEIAQLIQHIHDKGPVRSADFEHPRKGASGWWEWKPHKRHLEGLFTAGKVMVIERRNFQRVYDLTHRVMPDWDDERDLVSQTEAEIIMLDNSARSLGIFREQWLADYYRLKRPALAAWREARAEQQQIIAVHVEKLGNLWLHDDLLPLLERALAGKLTATHSAVLSPFDPVVWDRKRAEQLFDFSYRLECYTPAPKRQYGYFVLPLLHRGQLVGRMDAKMHRQTGILEVISLWLQEGIKPTTTLQKGLRQAITDFANWQQATRVTLGCCPQGLFTDCRTGWEIDPVA
total protein half-life in vivo [1]: 6.77 h

MTHIRIEKGTGGWGGPLELKATPGKKIVYITAGTRPAIVDKLAQLTGWQAIDGFKEGEPAEAEIGVAVIDCGGTLRCGIYPKRRIPTINIHSTGKSGPLAQYIVEDIYVSGVKEENITVVGDATPQPSSVGRDYDTSKKITEQSDGLLAKVGMGMGSTVAVLFQSGRDTIDTVLKTILPFMAFVSALIGIIMASGLGDWIAHGLAPLASHPLGLVMLALICSFPLLSPFLGPGAVIAQVIGVLIGVQIGLGNIPPHLALPALFAINAQAACDFIPVGLSLAEARQDTVRVGVPSVLVSRFLTGAPTVLIAWFVSGFIYQ
total protein half-life in vivo [2]: 5.44 h | total protein half-life in vivo [4]: 5.5 h | total protein half-life in vivo [6]: 2.06 ± 0.099 h | total protein half-life in vivo [7]: 4.93 h | total protein half-life in vivo [9]: 4.5 h

MNQFYVHVRLFEDTAEQTKKFEELMLNFLYQKTVKESDDSCCRLIPEGYILKSTMNCQQILDQTFSIANSAGVDANIFVCKFEQSACLLPSASLVGNDFVHYDLTPKPIKLDS
total protein half-life in vivo [1]: 5.47 ± 0.25 h

MGNNVVVLGTQWGDEGKGKIVDLLTERAKYVVRYQGGHNAGHTLVINGEKTVLHLIPSGILRENVTSIIGNGVVLSPAALMKEMKELEDRGIPVRERLLLSEACPLILDYHVALDNAREKARGAKAIGTTGRGIGPAYEDKVARRGLRVGDLFDKETFAEKLKEVMEYHNFQLVNYYKAEAVDYQKVLDDTMAVADILTSMVVDVSDLLDQARQRGDFVMFEGAQGTLLDIDHGTYPYVTSSNTTAGGVATGSGLGPRYVDYVLGILKAYSTRVGAGPFPTELFDETGEFLCKQGNEFGATTGRRRRTGWLDTVAVRRAVQLNSLSGFCLTKLDVLDGLKEVKLCVAYRMPDGREVTTTPLAADDWKGVEPIYETMPGWSESTFGVKDRSGLPQAALNYIKRIEELTGVPIDIISTGPDRTETMILRDPFDA [P0A7D4]
total protein half-life in vivo [1]: 4.49 ± 0.41 h | total protein half-life in vivo [2]: 4.35 ± 0.28 h | total protein half-life in vivo [3]: 4.567 ± 0.026 h | total protein half-life in vivo [4]: 4.73 ± 0.3 h | total protein half-life in vivo [5]: 4.3 ± 0.15 h | total protein half-life in vivo [6]: 3.04 ± 0.093 h | total protein half-life in vivo [7]: 5.86 ± 0.3 h | total protein half-life in vivo [8]: 10.4 ± 1.6 h | total protein half-life in vivo [9]: 4.39 ± 0.098 h | total protein half-life in vivo [10]: 7.26 ± 0.18 h | total protein half-life in vivo [11]: 6.09 ± 0.23 h | total protein half-life in vivo [12]: 10.6 ± 0.72 h

MTQVAKKILVTCALPYANGSIHLGHMLEHIQADVWVRYQRMRGHEVNFICADDAHGTPIMLKAQQLGITPEQMIGEMSQEHQTDFAGFNISYDNYHSTHSEENRQLSELIYSRLKENGFIKNRTISQLYDPEKGMFLPDRFVKGTCPKCKSPDQYGDNCEVCGATYSPTELIEPKSVVSGATPVMRDSEHFFFDLPSFSEMLQAWTRSGALQEQVANKMQEWFESGLQQWDISRDAPYFGFEIPNAPGKYFYVWLDAPIGYMGSFKNLCDKRGDSVSFDEYWKKDSTAELYHFIGKDIVYFHSLFWPAMLEGSNFRKPSNLFVHGYVTVNGAKMSKSRGTFIKASTWLNHFDADSLRYYYTAKLSSRIDDIDLNLEDFVQRVNADIVNKVVNLASRNAGFINKRFDGVLASELADPQLYKTFTDAAEVIGEAWESREFGKAVREIMALADLANRYVDEQAPWVVAKQEGRDADLQAICSMGINLFRVLMTYLKPVLPKLTERAEAFLNTELTWDGIQQPLLGHKVNPFKALYNRIDMRQVEALVEASKEEVKAAAAPVTGPLADDPIQETITFDDFAKVDLRVALIENAEFVEGSDKLLRLTLDLGGEKRNVFSGIRSAYPDPQALIGRHTIMVANLAPRKMRFGISEGMVMAAGPGGKDIFLLSPDAGAKPGHQVK
total protein half-life in vivo [1]: 4.5 ± 0.63 h | total protein half-life in vivo [2]: 4.18 ± 0.33 h | total protein half-life in vivo [3]: 4.16 ± 0.055 h | total protein half-life in vivo [4]: 4.3651 ± 0.0038 h | total protein half-life in vivo [5]: 4.17 ± 0.25 h | total protein half-life in vivo [6]: 3.09 ± 0.24 h | total protein half-life in vivo [7]: 5.54 ± 0.16 h | total protein half-life in vivo [8]: 9.62 ± 0.28 h | total protein half-life in vivo [9]: 4.1 ± 0.34 h | total protein half-life in vivo [10]: 6.3 ± 0.071 h | total protein half-life in vivo [11]: 5.51 ± 0.33 h | total protein half-life in vivo [12]: 11.4 ± 0.34 h

MKPSSSNSRSKGHAKARRKTREELDQEARDRKRQKKRRGHAPGSRAAGGNTTSGSKGQNAPKDPRIGSKTPIPLGVTEKVTKQHKPKSEKPMLSPQAELELLETDERLDALLERLEAGETLSAEEQSWVDAKLDRIDELMQKLGLSYDDDEEEEEDEKQEDMMRLLRGN [P0A8H6]
total protein half-life in vivo [1]: 5.38 ± 0.29 h | total protein half-life in vivo [2]: 5.18 ± 0.7 h | total protein half-life in vivo [3]: 4.08 ± 0.55 h | total protein half-life in vivo [4]: 3.93 ± 0.22 h | total protein half-life in vivo [5]: 4.09 ± 1.7 h | total protein half-life in vivo [6]: 2.52 ± 0.0028 h | total protein half-life in vivo [7]: 4.36 ± 0.45 h | total protein half-life in vivo [8]: 7.24 ± 1.8 h | total protein half-life in vivo [9]: 3.59 ± 0.17 h | total protein half-life in vivo [10]: 5.58 ± 1 h | total protein half-life in vivo [11]: 2.98 h | total protein half-life in vivo [12]: 5.38 ± 0.71 h

MNTLPEHSCDVLIIGSGAAGLSLALRLADQHQVIVLSKGPVTEGSTFYAQGGIAAVFDETDSIDSHVEDTLIAGAGICDRHAVEFVASNARSCVQWLIDQGVLFDTHIQPNGEESYHLTREGGHSHRRILHAADATGREVETTLVSKALNHPNIRVLERSNAVDLIVSDKIGLPGTRRVVGAWVWNRNKETVETCHAKAVVLATGGASKVYQYTTNPDISSGDGIAMAWRAGCRVANLEFNQFHPTALYHPQARNFLLTEALRGEGAYLKRPDGTRFMPDFDERGELAPRDIVARAIDHEMKRLGADCMFLDISHKPADFIRQHFPMIYEKLLGLGIDLTQEPVPIVPAAHYTCGGVMVDDHGRTDVEGLYAIGEVSYTGLHGANRMASNSLLECLVYGWSAAEDITRRMPYAHDISTLPPWDESRVENPDERVVIQHNWHELRLFMWDYVGIVRTTKRLERALRRITMLQQEIDEYYAHFRVSNNLLELRNLVQVAELIVRCAMMRKESRGLHFTLDYPELLTHSGPSILSPGNHYINR
total protein half-life in vivo [1]: 4 ± 0.14 h | total protein half-life in vivo [2]: 2.44 ± 0.11 h | total protein half-life in vivo [3]: 2.28 ± 0.26 h | total protein half-life in vivo [4]: 4.14 ± 1.7 h | total protein half-life in vivo [5]: 2.39 ± 0.22 h | total protein half-life in vivo [6]: 2.68 ± 0.063 h | total protein half-life in vivo [7]: 4.41 ± 0.59 h | total protein half-life in vivo [8]: 8.41 ± 0.56 h | total protein half-life in vivo [9]: 2.58 ± 0.22 h | total protein half-life in vivo [10]: 3.51 ± 0.061 h | total protein half-life in vivo [11]: 4.69 ± 0.27 h | total protein half-life in vivo [12]: 8.21 ± 0.71 h

Source: the supplement of paper PMC11246515
